Assay results from article PMC2975895.

Legend:
[1] = molecular target: AxxA-SurR (SurR C23A C26A variant) (Pyrococcus furiosus); assay: crystal structure
[2] = molecular target: AxxA-SurR (SurR C23A C26A variant) (Pyrococcus furiosus); assay: SEC
[3] = molecular target: SurR oxidized with diamide or colloidal S^0 (Pyrococcus furiosus); assay: SEC

Substance	stoichiometry N [1]	stoichiometry N [2]	stoichiometry N [3]
AxxA-SurR (SurR C23A C26A variant) (natural protein)	2	2	–
SurR oxidized with diamide or colloidal S^0 (natural protein)	–	–	2
